Laboratory results from the RNAGym collection of RNA variant scans (doi:10.1021/acssynbio.7b00057).

B1: Pistol ribozyme (parent)
chain: GGGUCGUUGUUCCAUAAUCGCGUGGAUAUGGCACGCAAGUUUCUACCGGGCACCGUAAAUGUCCGACUGGAGCCGUUCGGGCGGCUAUAAACAGACCUCAGGCCCGAAGCGUGGCGGCACCUGCCGCCGGUGGUAAAAAAGAUCGGAAGAGCACACGUCU

Variants of: B1
Test: aptazyme ON/OFF ratio, guanine; higher = stronger switching; co-transcriptional cleavage with and without guanine

| Variant | aptazyme ON/OFF ratio |
| --- | --- |
| GGGUCGCCCGAGCAUAAUCGCGUGGAUAUGGCACGCAAGUUUCUACCGGGCACCGUAAAUGUCCGACUGGAGCCGUUCGGGCGGCUAUAAACAGACCUCAGGCCCGAAGCGUGGCGGCACCUGCCGCCGGUGGUAAAAAAGAUCGGAAGAGCACACGUCU | 1.11 |
| GGGUCGCCCGAACAUAAUCGCGUGGAUAUGGCACGCAAGUUUCUACCGGGCACCGUAAAUGUCCGACUGGAGCCGUUCGGGCGGCUAUAAACAGACCUCAGGCCCGAAGCGUGGCGGCACCUGCCGCCGGUGGUAAAAAAGAUCGGAAGAGCACACGUCU | 1.16 |
| GGGUCGCCCGAUCAUAAUCGCGUGGAUAUGGCACGCAAGUUUCUACCGGGCACCGUAAAUGUCCGACUGGAGCCGUUCGGGCGGCUAUAAACAGACCUCAGGCCCGAAGCGUGGCGGCACCUGCCGCCGGUGGUAAAAAAGAUCGGAAGAGCACACGUCU | 1.15 |
| GGGUCGCCCGCCCAUAAUCGCGUGGAUAUGGCACGCAAGUUUCUACCGGGCACCGUAAAUGUCCGACUGGAGCCGUUCGGGCGGCUAUAAACAGACCUCAGGCCCGAAGCGUGGCGGCACCUGCCGCCGGUGGUAAAAAAGAUCGGAAGAGCACACGUCU | 1.5 |
| GGGUCGCCCGACCAUAAUCGCGUGGAUAUGGCACGCAAGUUUCUACCGGGCACCGUAAAUGUCCGACUGGAGCCGUUCGGGCGGCUAUAAACAGACCUCAGGCCCGAAGCGUGGCGGCACCUGCCGCCGGUGGUAAAAAAGAUCGGAAGAGCACACGUCU | 1.3 |
| GGGUCGCCCGCGAAUAAUCGCGUGGAUAUGGCACGCAAGUUUCUACCGGGCACCGUAAAUGUCCGACUGGAGCCGUUCGGGCGGCUAUAAACAGACCUCAGGCCCGAAGCGUGGCGGCACCUGCCGCCGGUGGUAAAAAAGAUCGGAAGAGCACACGUCU | 1.14 |
| GGGUCGCCCGCGGAUAAUCGCGUGGAUAUGGCACGCAAGUUUCUACCGGGCACCGUAAAUGUCCGACUGGAGCCGUUCGGGCGGCUAUAAACAGACCUCAGGCCCGAAGCGUGGCGGCACCUGCCGCCGGUGGUAAAAAAGAUCGGAAGAGCACACGUCU | 1.1 |
| GGGUCGCCCGCGUAUAAUCGCGUGGAUAUGGCACGCAAGUUUCUACCGGGCACCGUAAAUGUCCGACUGGAGCCGUUCGGGCGGCUAUAAACAGACCUCAGGCCCGAAGCGUGGCGGCACCUGCCGCCGGUGGUAAAAAAGAUCGGAAGAGCACACGUCU | 1.11 |
| GGGUCGCCCGAAAAUAAUCGCGUGGAUAUGGCACGCAAGUUUCUACCGGGCACCGUAAAUGUCCGACUGGAGCCGUUCGGGCGGCUAUAAACAGACCUCAGGCCCGAAGCGUGGCGGCACCUGCCGCCGGUGGUAAAAAAGAUCGGAAGAGCACACGUCU | 1.16 |
| GGGUCGCCCGAAUAUAAUCGCGUGGAUAUGGCACGCAAGUUUCUACCGGGCACCGUAAAUGUCCGACUGGAGCCGUUCGGGCGGCUAUAAACAGACCUCAGGCCCGAAGCGUGGCGGCACCUGCCGCCGGUGGUAAAAAAGAUCGGAAGAGCACACGUCU | 1.11 |
| GGGUCGCCCGAAGAUAAUCGCGUGGAUAUGGCACGCAAGUUUCUACCGGGCACCGUAAAUGUCCGACUGGAGCCGUUCGGGCGGCUAUAAACAGACCUCAGGCCCGAAGCGUGGCGGCACCUGCCGCCGGUGGUAAAAAAGAUCGGAAGAGCACACGUCU | 1.11 |
| GGGUCGCCCGACGAUAAUCGCGUGGAUAUGGCACGCAAGUUUCUACCGGGCACCGUAAAUGUCCGACUGGAGCCGUUCGGGCGGCUAUAAACAGACCUCAGGCCCGAAGCGUGGCGGCACCUGCCGCCGGUGGUAAAAAAGAUCGGAAGAGCACACGUCU | 1.08 |
| GGGUCGCCCGACAAUAAUCGCGUGGAUAUGGCACGCAAGUUUCUACCGGGCACCGUAAAUGUCCGACUGGAGCCGUUCGGGCGGCUAUAAACAGACCUCAGGCCCGAAGCGUGGCGGCACCUGCCGCCGGUGGUAAAAAAGAUCGGAAGAGCACACGUCU | 1.14 |
| GGGUCGCCCGACUAUAAUCGCGUGGAUAUGGCACGCAAGUUUCUACCGGGCACCGUAAAUGUCCGACUGGAGCCGUUCGGGCGGCUAUAAACAGACCUCAGGCCCGAAGCGUGGCGGCACCUGCCGCCGGUGGUAAAAAAGAUCGGAAGAGCACACGUCU | 1.09 |
| GGGUCGCCCGUUGAUAAUCGCGUGGAUAUGGCACGCAAGUUUCUACCGGGCACCGUAAAUGUCCGACUGGAGCCGUUCGGGCGGCUAUAAACAGACCUCAGGCCCGAAGCGUGGCGGCACCUGCCGCCGGUGGUAAAAAAGAUCGGAAGAGCACACGUCU | 1.09 |
| GGGUCGCCCGUUUAUAAUCGCGUGGAUAUGGCACGCAAGUUUCUACCGGGCACCGUAAAUGUCCGACUGGAGCCGUUCGGGCGGCUAUAAACAGACCUCAGGCCCGAAGCGUGGCGGCACCUGCCGCCGGUGGUAAAAAAGAUCGGAAGAGCACACGUCU | 1.08 |
| GGGUCGCCCGCAGAUAAUCGCGUGGAUAUGGCACGCAAGUUUCUACCGGGCACCGUAAAUGUCCGACUGGAGCCGUUCGGGCGGCUAUAAACAGACCUCAGGCCCGAAGCGUGGCGGCACCUGCCGCCGGUGGUAAAAAAGAUCGGAAGAGCACACGUCU | 1.17 |
| GGGUCGCCCGCAUAUAAUCGCGUGGAUAUGGCACGCAAGUUUCUACCGGGCACCGUAAAUGUCCGACUGGAGCCGUUCGGGCGGCUAUAAACAGACCUCAGGCCCGAAGCGUGGCGGCACCUGCCGCCGGUGGUAAAAAAGAUCGGAAGAGCACACGUCU | 1.09 |

| Variant | aptazyme ON/OFF ratio |
| --- | --- |
| GGGUCGCCCGCAAAUAAUCGCGUGGAUAUGGCACGCAAGUUUCUACCGGGCACCGUAAAUGUCCGACUGGAGCCGUUCGGGCGGCUAUAAACAGACCUCAGGCCCGAAGCGUGGCGGCACCUGCCGCCGGUGGUAAAAAAGAUCGGAAGAGCACACGUCU | 1.13 |
| GGGUCGCCCGCCAAUAAUCGCGUGGAUAUGGCACGCAAGUUUCUACCGGGCACCGUAAAUGUCCGACUGGAGCCGUUCGGGCGGCUAUAAACAGACCUCAGGCCCGAAGCGUGGCGGCACCUGCCGCCGGUGGUAAAAAAGAUCGGAAGAGCACACGUCU | 1.22 |
| GGGUCGCCCGCCGAUAAUCGCGUGGAUAUGGCACGCAAGUUUCUACCGGGCACCGUAAAUGUCCGACUGGAGCCGUUCGGGCGGCUAUAAACAGACCUCAGGCCCGAAGCGUGGCGGCACCUGCCGCCGGUGGUAAAAAAGAUCGGAAGAGCACACGUCU | 1.08 |
| GGGUCGCCCGAUAAUAAUCGCGUGGAUAUGGCACGCAAGUUUCUACCGGGCACCGUAAAUGUCCGACUGGAGCCGUUCGGGCGGCUAUAAACAGACCUCAGGCCCGAAGCGUGGCGGCACCUGCCGCCGGUGGUAAAAAAGAUCGGAAGAGCACACGUCU | 1.07 |
| GGGUCGCCCGAUGAUAAUCGCGUGGAUAUGGCACGCAAGUUUCUACCGGGCACCGUAAAUGUCCGACUGGAGCCGUUCGGGCGGCUAUAAACAGACCUCAGGCCCGAAGCGUGGCGGCACCUGCCGCCGGUGGUAAAAAAGAUCGGAAGAGCACACGUCU | 1.07 |
| GGGUCGCCCGAUUAUAAUCGCGUGGAUAUGGCACGCAAGUUUCUACCGGGCACCGUAAAUGUCCGACUGGAGCCGUUCGGGCGGCUAUAAACAGACCUCAGGCCCGAAGCGUGGCGGCACCUGCCGCCGGUGGUAAAAAAGAUCGGAAGAGCACACGUCU | 1.09 |
| GGGUCGCCCGCUGAUAAUCGCGUGGAUAUGGCACGCAAGUUUCUACCGGGCACCGUAAAUGUCCGACUGGAGCCGUUCGGGCGGCUAUAAACAGACCUCAGGCCCGAAGCGUGGCGGCACCUGCCGCCGGUGGUAAAAAAGAUCGGAAGAGCACACGUCU | 1.14 |
| GGGUCGCCCGCUUAUAAUCGCGUGGAUAUGGCACGCAAGUUUCUACCGGGCACCGUAAAUGUCCGACUGGAGCCGUUCGGGCGGCUAUAAACAGACCUCAGGCCCGAAGCGUGGCGGCACCUGCCGCCGGUGGUAAAAAAGAUCGGAAGAGCACACGUCU | 1.17 |
| GGGUCGCCCGCUAAUAAUCGCGUGGAUAUGGCACGCAAGUUUCUACCGGGCACCGUAAAUGUCCGACUGGAGCCGUUCGGGCGGCUAUAAACAGACCUCAGGCCCGAAGCGUGGCGGCACCUGCCGCCGGUGGUAAAAAAGAUCGGAAGAGCACACGUCU | 1.07 |
| GGGUCGCCCGAGAAUAAUCGCGUGGAUAUGGCACGCAAGUUUCUACCGGGCACCGUAAAUGUCCGACUGGAGCCGUUCGGGCGGCUAUAAACAGACCUCAGGCCCGAAGCGUGGCGGCACCUGCCGCCGGUGGUAAAAAAGAUCGGAAGAGCACACGUCU | 1.05 |
| GGGUCGCCCGAGUAUAAUCGCGUGGAUAUGGCACGCAAGUUUCUACCGGGCACCGUAAAUGUCCGACUGGAGCCGUUCGGGCGGCUAUAAACAGACCUCAGGCCCGAAGCGUGGCGGCACCUGCCGCCGGUGGUAAAAAAGAUCGGAAGAGCACACGUCU | 1.08 |
| GGGUCGCCCGAGGAUAAUCGCGUGGAUAUGGCACGCAAGUUUCUACCGGGCACCGUAAAUGUCCGACUGGAGCCGUUCGGGCGGCUAUAAACAGACCUCAGGCCCGAAGCGUGGCGGCACCUGCCGCCGGUGGUAAAAAAGAUCGGAAGAGCACACGUCU | 1.11 |
| GGGUCGCCCGCACAUAAUCGCGUGGAUAUGGCACGCAAGUUUCUACCGGGCACCGUAAAUGUCCGACUGGAGCCGUUCGGGCGGCUAUAAACAGACCUCAGGCCCGAAGCGUGGCGGCACCUGCCGCCGGUGGUAAAAAAGAUCGGAAGAGCACACGUCU | 1.09 |
| GGGUCGCCCGCUCAUAAUCGCGUGGAUAUGGCACGCAAGUUUCUACCGGGCACCGUAAAUGUCCGACUGGAGCCGUUCGGGCGGCUAUAAACAGACCUCAGGCCCGAAGCGUGGCGGCACCUGCCGCCGGUGGUAAAAAAGAUCGGAAGAGCACACGUCU | 1.19 |
| GGGUCGCCCGCGCAUAAUCGCGUGGAUAUGGCACGCAAGUUUCUACCGGGCACCGUAAAUGUCCGACUGGAGCCGUUCGGGCGGCUAUAAACAGACCUCAGGCCCGAAGCGUGGCGGCACCUGCCGCCGGUGGUAAAAAAGAUCGGAAGAGCACACGUCU | 1.14 |
| GGGUCGCCCGUCGAUAAUCGCGUGGAUAUGGCACGCAAGUUUCUACCGGGCACCGUAAAUGUCCGACUGGAGCCGUUCGGGCGGCUAUAAACAGACCUCAGGCCCGAAGCGUGGCGGCACCUGCCGCCGGUGGUAAAAAAGAUCGGAAGAGCACACGUCU | 1.1 |
| GGGUCGCCCGUCUAUAAUCGCGUGGAUAUGGCACGCAAGUUUCUACCGGGCACCGUAAAUGUCCGACUGGAGCCGUUCGGGCGGCUAUAAACAGACCUCAGGCCCGAAGCGUGGCGGCACCUGCCGCCGGUGGUAAAAAAGAUCGGAAGAGCACACGUCU | 1.17 |
| GGGUCGCCCGUCAAUAAUCGCGUGGAUAUGGCACGCAAGUUUCUACCGGGCACCGUAAAUGUCCGACUGGAGCCGUUCGGGCGGCUAUAAACAGACCUCAGGCCCGAAGCGUGGCGGCACCUGCCGCCGGUGGUAAAAAAGAUCGGAAGAGCACACGUCU | 1.13 |
